The text below walks through data of patent publication US20220265759.

For the series, the target named is T1, human chemokine receptor CCR10, P46092.
T1 chain: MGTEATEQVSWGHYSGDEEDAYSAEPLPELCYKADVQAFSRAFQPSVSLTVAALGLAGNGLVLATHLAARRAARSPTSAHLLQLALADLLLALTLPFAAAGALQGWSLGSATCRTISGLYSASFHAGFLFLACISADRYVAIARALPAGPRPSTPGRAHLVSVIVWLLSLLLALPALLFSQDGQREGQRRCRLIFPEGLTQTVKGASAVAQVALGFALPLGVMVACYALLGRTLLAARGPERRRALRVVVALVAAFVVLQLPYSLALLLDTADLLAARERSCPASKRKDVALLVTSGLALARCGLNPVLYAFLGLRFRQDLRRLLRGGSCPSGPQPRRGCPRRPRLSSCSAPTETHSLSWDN

B1: human endothelial nitric oxide synthase (eNOS) (protein)
chain: GNLKSVAQEPGPPCGLGLGLGLGLCGKQGPATPAPEPSRAPASLLPPAPEHSPPSSPLTQPPEGPKFPRVKNWEVGSITYDTLSAQAQQDGPCTPRRCLGSLVFPRKLQGRPSPGPPAPEQLLSQARDFINQYYSSIKRSGSQAHEQRLQEVEAEVAATGTYQLRESELVFGAKQAWRNAPRCVGRIQWGKLQVFDARDCRSAQEMFTYICNHIKYATNRGNLRSAITVFPQRCPGRGDFRIWNSQLVRYAGYRQQDGSVRGDPANVEITELCIQHGWTPGNGRFDVLPLLLQAPDDPPELFLLPPELVLEVPLEHPTLEWFAALGLRWYALPAVSNMLLEIGGLEFPAAPFSGWYMSTEIGTRNLCDPHRYNILEDVAVCMDLDTRTTSSLWKDKAAVEINVAVLHSYQLAKVTIVDHHAATASFMKHLENEQKARGGCPADWAWIVPPISGSLTPVFHQEMVNYFLSPAFRYQPDPWKGSAAKGTGITRKKTFKEVANAVKISASLMGTVMAKRVKATILYGSETGRAQSYAQQLGRLFRKAFDPRVLCMDEYDVVSLEHETLVLVVTSTFGNGDPPENGESFAAALMEMSGPYNSSPRPEQHKSYKIRFNSISCSDPLVSSWRRKRKESSNTDSAGALGTLRFCVFGLGSRAYPHFCAFARAVDTRLEELGGERLLQLGQGDELCGQEEAFRGWAQAAFQAACETFCVGEDAKAAARDIFSPKRSWKRQRYRLSAQAEGLQLLPGLIHVHRRKMFQATIRSVENLQSSKSTRATILVRLDTGGQEGLQYQPGDHIGVCPPNRPGLVEALLSRVEDPPAPTEPVAVEQLEKGSPGGPPPGWVRDPRLPPCTLRQALTFFLDITSPPSPQLLRLLSTLAEEPREQQELEALSQDPRRYEEWKWFRCPTLLEVLEQFPSVALPAPLLLTQLPLLQPRYYSVSSAPSTHPGEIHLTVAVLAYRTQDGLGPLHYGVCSTWLSQLKPGDPVPCFIRGAPSFRLPPDPSLPCILVGPGTGIAPFRGFWQERLHDIESKGLQPTPMTLVFGCRCSQLDHLYRDEVQNAQQRGVFGRVLTAFSREPDNPKTYVQDILRTELAAEVHRVLCLERGHMFVCGDVTMATNVLQTVQRILATEGDMELDEAGDVIGVLRDQQRYHEDIFGLTLRTQEVTSRIRTQSFSLQERQLRGAVPWAFDPPGSDTNSP
For B1, the “eNOS phosphorylation (Ser1177) in presence of Myr-CBD7” value is given as “eNOS phosphorylation (Ser1177) was significantly enhanced in presence of Myr-CBD7” and the “phosphorylation of eNOS after CCR10 siRNA knockdown (western blot, A23187 stimulation)” value is recorded as “phosphorylation of eNOS was significantly increased compared to control siRNA, even at 0 minutes”.
